# Test system: MS2 coat protein
# Assay: apparent KD of MS2 coat protein; designed switch direction (-1 OFF switch, 1 ON switch): -1; higher = weaker reporter binding
# How it was run: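 The buffer was Tris-HCl pH 7.5 with KCl, MgCl2, BSA, DTT, tRNA and Tween-20. In it, SNAP-549-labelled MS2 coat protein was titrated in doubling steps from 0.7 or 1.5 nM to 3 µM over chip-bound RNA switches transcribed by stalled E. coli RNA polymerase on Illumina chips. Apparent KD is the per-design median over clusters of curve fits to normalised fluorescence.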
# [1] = Eterna round: R95, input ligand: FMN 200 uM
# [2] = Eterna round: R95, input ligand: microRNA oligo, concentration not stated
# [3] = Eterna round: R95, input ligand: none
# [4] = input ligand: microRNA oligo, concentration not stated
Sequence,apparent KD of MS2 coat protein [1],apparent KD of MS2 coat protein [2],apparent KD of MS2 coat protein [3],apparent KD of MS2 coat protein (input ligand: FMN 200 uM),apparent KD of MS2 coat protein [4],apparent KD of MS2 coat protein (input ligand: none)
"CUCCUCAUGGCGCCUAAACACAUGAGGAUCACCCAUGUACAGGCUUCUUGCCGUCUUAUAAUAAAACCGAGGAUGCG [Onleorqula] (puzzle: Sensor v3, turn-off variant 1)",43.8 nM,283 nM,47.3 nM,,,
"UAUCAUCAUGUAGGAUAUGCGUGGCAAAGCUAUGCAGAAGGACAUGAGGAUCACCCAUGUUCUAGCGUCUGCGUACAGAUGCUA [Mat - Exclusion NG 1 - Mod of JL - D74] (Eterna round: R96, puzzle: Exclusion NG 1)",,,,247 nM,45.2 nM,68.7 nM
"UAGAUGCUCAGGGAGUGUGACAUGAGGAUCACCCAUGUGGUGGUAGGGAACAAGCUUUUUGCACGUACUUAUGAGUA [JR_SV3TOV1_Sub007] (puzzle: Sensor v3, turn-off variant 1)",64.9 nM,18.3 nM,117 nM,,,
"UUGUUCCGUGUAGGAUAUUGGUCUCCCUCGGGCCGAGAAGGACAUGAGGAUCACCCAUGUAUGUUAUUAUCGCGCGUGGCGCAU [Design 91] (Eterna round: R96, puzzle: Exclusion NG 1)",,,,112 nM,21.6 nM,37.9 nM
"UCCUUGUUAGGAUAUUGCCUGUGGGCUAAUCUGAAUACAGGUAAGAAGGGACAUGAGGAUCACCCAUGUGACAA [Eternabot (Original) Solution 32] (Eterna round: R97, puzzle: Exclusion 4)",,,,39.3 nM,,28.8 nM
"AAGUACCGUCACGAUAGUGAUGGUACAACAAGCAUGUAAACAUGAGGAUCACCCAUGUCCUCAAAUGCUCGUCUUAU [Sensor 3 - 65] (puzzle: Sensor v3, turn-off variant 2)",556 nM,1090 nM,689 nM,,,
"CACCGUAACAGAGGAUAUGAAACAUGAGGAUCACCCAUGUAAUAAAUGAGAAUUUCGAAUGUACCUCAGAAGGCUGAAACCGGC [Ostricism 82 - Jieux - Exclusion NG 2] (Eterna round: R96, puzzle: Exclusion NG 2)",,,,56.8 nM,31.9 nM,43 nM
"CAUAGUUACACAGGAUAUAGUACAUGAGGAUCACCCAUGUAAUAAAUGAGAAUUUCGAAUGUAUACUAGAAGGGUGAAAUCUAC [Ostracism 54 - Jieux - Exclusion NG 2] (Eterna round: R96, puzzle: Exclusion NG 2)",,,,206 nM,144 nM,171 nM
"GGAAACCGAGGAUAUCAGUACACGCACAUGAGGAUCACCCAUGUGCUCCUGGGUGCUGUCUGAGAAGGCGGUGAGA [Quan] (Eterna round: R97, puzzle: Exclusion 5)",,,,648 nM,,1620 nM
AAGAGUGCAGGAUAUACUUGUUAGGACGGUUGGAUGAAUGGACAUGAGGAUCACCCAUGUAGAAGGGCAGAGAG [JR_Exclu2_Sub051] (puzzle: Exclusion 2),33.9 nM,30.2 nM,41.3 nM,,,
"AGCGAGGCAGGAUAUACAUGAGGAUCACCCAUGUACUUGUAUGGCGUGGAACAUCGUGGUAGAAGGGCCGUGCC [EX3 #80] (Eterna round: R97, puzzle: Exclusion 3)",,,,92.7 nM,,68.9 nM
"UCGUGUCUUGAGGAUAUGUUUGAAAAGGCCCACGCAGAAGGCGAGACAUGAGGAUCACCCAUGUCACAGCUCCG [EX6 C.16] (Eterna round: R97, puzzle: Exclusion 6)",,,,56.4 nM,,18.6 nM
"UACAUGAGGAUCACCCAUGUUUUGUCGUGUAUGGUAUUUAUCUAGGAUAUCAAUGAAUUUAUUUAUGAGAAGGAGAAUAUUAAU [JMF's solution 37] (Eterna round: R96, puzzle: Exclusion NG 3)",,,,,30.7 nM,
"GUCAGCUCGUGAGGAUAUACAUGCGUGCUUCGGCACGUAUGAUAGAUCACAUGAGGAUCACCCAUGUAGAAGGCACGAGCUGAC [ENG2/4-A1] (Eterna round: R96, puzzle: Exclusion NG 2)",,,,18.8 nM,11.1 nM,12.9 nM
"AGUACUAACUCGAAAGUGUUAGUACAAUAAGCUUGUGAAACAUGAGGAUCACCCAUGUCCUCAUAAGCUCGUCUUAU [salish99_TOv2_r3_022] (puzzle: Sensor v3, turn-off variant 2)",15.7 nM,739 nM,15.3 nM,,,
CUGGUCCGAGGAUAUAUGAUGUGAAACAUGAGGAUCACCCAUGUAAUAUUAUGGAUGUAAAUAGAAGGCGGACUAG [JL-ex5-3.08] (puzzle: Exclusion 5),37.8 nM,33.9 nM,74.2 nM,,,
"UAUUUAUAUGAAGGAUAUACUUAACAUGAGGAUCACCCAUGUGGUGUUGUGAGUGAGUGAGUUUAGUAGAAGGUCAAUUAUUUU [JMF's solution 30] (Eterna round: R96, puzzle: Exclusion NG 2)",,,,282 nM,131 nM,222 nM

Sequence,apparent KD of MS2 coat protein [1],apparent KD of MS2 coat protein [2],apparent KD of MS2 coat protein [3],apparent KD of MS2 coat protein (input ligand: FMN 200 uM),apparent KD of MS2 coat protein [4],apparent KD of MS2 coat protein (input ligand: none)
CUGGUGUGAGGAUAUCAAAGACCUCGGGAUAGUAGCGAGGAUGAGAAGGCACAUGAGGAUCACCCAUGUAACAA [Edmaer] (puzzle: Exclusion 4),,21.2 nM,,,,
"CAGUACUGAGGAUAUACAUGAGGAUCACCCAUGUGUUCCAGCUAGGGAACUAGCAAAAGUAGAAGGCAGUACUG [salish99_ex3_r3_075] (Eterna round: R96, puzzle: Exclusion 3)",,,,455 nM,20.4 nM,25 nM
"AGUACUAACACGAAAGUGUUAGUAAAAUAAGCUUGUGGUACAUGAGGAUCACCCAUGUCCUCAUAAGCUCGUCUUAU [Mat - Sensor v3 - Turn-off var 2 - D42] (puzzle: Sensor v3, turn-off variant 2)",21.6 nM,78.8 nM,20.6 nM,,,
CCGAAUAUGCAGGAUAUCUUAUCGGAAACGAUAAGAGAAGGGUAAACAUGAGGAUCACCCAUGUUCCUUAACGG [Mat - Exclusion 6 - Eli Mod - D80] (puzzle: Exclusion 6),,18.9 nM,,,,
"ACAAGCUUUUUGUUCGUCUUAUACACUCCUAAGAGGACAACAUGAGGAUCACCCAUGUAACAAAGACGGACUCAUGU [Sesor Array 11 - Jieux - Sensor v3, turn-off variant 2] (puzzle: Sensor v3, turn-off variant 2)",17.7 nM,129 nM,12 nM,,,
GGAGAACAUGAGGAUCACCCAUGUAAGGAUAUGCAAAAGGAUAUAGAAGGAAAAAAAAGCAGAAGGUACAAAGG [salish99-ex1_r3_101] (puzzle: Exclusion 1),79.5 nM,81.9 nM,75.1 nM,,,
AAUAACAGAGGAUAUACUGUUUUAUGUGUUUAUUGUUUUGAACAUGAGGAUCACCCAUGUAGAAGGCUGAAUGA [JMF 66] (puzzle: Exclusion 2),,23 nM,,,,
GCCAGAGCAGGAUAUUUAUAUUAUCACAUGAGGAUCACCCAUGUCCAGCGAAAGCUGGAGGGAGAAGGGCUCUGGC [Fiskers Ex 5 - 25] (puzzle: Exclusion 5),121 nM,190 nM,250 nM,,,
"CUAGCGAUUGUAGGAUAUCGGACUGUUUCAGUCUGAGAAGGACAUGAGGAUCACCCAUGUGAUGGAUCGUGAGAUCCACGCUAG [JL ENG1 3.80] (Eterna round: R96, puzzle: Exclusion NG 1)",,,,195 nM,25.7 nM,27.9 nM
UUUUACCUAGGAUAUACAUUUUUUUUAUUAUUUUCAUUAUAACAUGAGGAUCACCCAUGUAGAAGGAGGAUUUU [My Design] (puzzle: Exclusion 2),,34.7 nM,,,,
CUUCUCGUUGUGAGGAUAUCGUUUUCGUCUCGGAUCGAGAAGGCACAUGAGGAUCACCCAUGUUUGUUGUGGUU [JR_BMOE4_Sub090] (puzzle: Brourd's mod of Exclusion 4),,87.9 nM,,,,
ACCCAACAUGAGGAUCACCCAUGUCAGGAUAUCCAAGCGAAAGCAAAAGCGAAAGCAAGGAGAAGGGACAGAGG [ChP 04-04-2015 #6] (puzzle: Exclusion 1),308 nM,90 nM,180 nM,,,
GUUAGUAUCUAGGAUAUCUAGUACAUAGUAUCUAGAGAAGGAGAUACAUGAGGAUCACCCAUGUUCUGUGUUCU [Exclusion 6 - 1:c] (puzzle: Exclusion 6),,21.9 nM,,,,
"UCGGGAAGAGGAUAUACAUAGAAAUAGAUUCAUGUAAAACUACAUGAGGAUCACCCAUGUAGAAGGCUUUCCGU [Mat - Exclusion 2 - JL Mod - D55] (Eterna round: R97, puzzle: Exclusion 2)",,,,146 nM,,24.2 nM
"CCGGAAAGGAAGGAUAUGCUAGACGAGAGUCUAGCAGAAGGUCCUACAUGAGGAUCACCCAUGUGUCCUACCGG [Mat - Exclusion 6 - Eli Mod - D38] (Eterna round: R97, puzzle: Exclusion 6)",,,,69.6 nM,,79.8 nM
"GAUUAUGCGAGCUUUAGGGACAUGAGGAUCACCCAUGUUCGUCUUAUUGGUCUGAGUACACUGACAUACCUAAAUCU [JMF 63] (puzzle: Sensor v3, turn-off variant 1)",13.3 nM,15.9 nM,12.8 nM,,,
